The data set concerns the molecule itself. The data set can be described thus: SEC.

B1: ΔN71–AtTHIC (N-terminally truncated Arabidopsis thaliana THIC, HMP-P synthase, lacking the first 71 amino acids) (enzyme)
chain: not shown
Consider B1, for which the stoichiometry N (as a rule, the number of molecules, sites or subunits per partner or assembly) was 2.

Values taken from publication PMC6078384 (Journal of structural biology, 2013).
